± gives the uncertainty stated by the source.
Test: amyloid nucleation score (Sup35N fusion, yeast selection) (log enrichment); library NNK2; higher = more nucleation; inactive = no reads after selection
In short: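 The nucleation score is the log enrichment of output over input reads, calculated with DiMSum and centred on the mode score of non-aggregating sequences. Sequences with under 100 input reads were excluded. Reads came from Illumina sequencing of plasmid inserts from psi-negative yeast expressing Sup35N fused to peptides of 20 random codons, induced 24 hours with 100 μM copper sulfate and grown 7 days at 30°C without adenine and uracil.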

Substance	amyloid nucleation score
MSMLNRALGILKSTFMINRR	-0.058 ± 0.53
MSNARRFSMNDSYNIVLCWE	-0.111 ± 0.63
MSPVCLCCYLPTRVYCKVSG	5.85 ± 0.084
MSRSVVESQMVLSDDFWHQG	-0.41 ± 0.22
MSRWKVHFTMRTSPCIVNEH	1.17 ± 0.45
MSRWTKIGNFDNIPSIPLVV	-0.228 ± 0.36
MSSCLRL	4.51 ± 0.056
MSSSVHLGIFITQCVKTRQL	2.25 ± 0.22
MSSYDF	inactive
MSTMINSPPSSG	inactive
MSVTWYLGNWVTVL	-1.09 ± 0.79
MSVVVLWHGLCLQLYMCDA	-0.23 ± 0.65
MSWVVIQFTINIFRHKTF	3.47 ± 0.11
MTIHVSTELAALSSGL	1.11 ± 0.17
MTLVRFSRIGALKLCLQKES	-0.337 ± 0.39
MTYRSLPEYTDLLWVTYVER	0.369 ± 0.46
MVANG	0.317 ± 0.62
MVCLLSFPHPCGINLMVARN	-0.147 ± 0.37
MVCRFGILSYVMWRF	0.83 ± 0.45
MVDTTRSTCISNSISWCAID	5.28 ± 0.062
MVGVVWSMTRFCGQHHTILG	0.531 ± 0.81
MVNGEVTLGAVCNTYQWACI	2.66 ± 0.15
MVPVFTGWRICVGGNCLARR	-0.162 ± 0.34
MVVEFCYVRYRAN	0.716 ± 0.6
MVVNVGK	-0.088 ± 0.17

Substance	amyloid nucleation score
MWFWTLCIF	8.025 ± 0.027
MWIHYKVFRCWTVRAEKVTG	4.29 ± 0.083
MWIYNY	2.78 ± 0.087
MWLASSDNYHNMALVCFCVL	inactive
MWVDQMVFKRPGYCRSGMYL	4.78 ± 0.049
MYDFLVKGRGVCVNLGNSTW	-1.21 ± 0.48
MYEFQPRLDHRLFRYICMNV	-0.018 ± 1.1
MYILMKDIRDFIFSSRPIIS	inactive
MYRISPCVLRGY	0.366 ± 0.34
MYSYFSRSMTHTNNGLSSLA	4.38 ± 0.045
MYTKVNF	-0.93 ± 0.76
MYTLYS	inactive
MYTVGWHSTQCFLEDFGRTL	3.13 ± 0.075
NACILNSM	inactive
NADHDLSEILVNRRTGWFHF	5.836 ± 0.041
NALSIQVGSCPRSLISSVGP	0.228 ± 1
NASLYVSYGM	1.5 ± 0.39
NASVHPMFL	-0.24 ± 0.48
NATCPRHCRDHQGSYYRHCL	0.499 ± 0.28
NAVFVFSRWWYISNVVPQK	-1.48 ± 1.1
NAYFMLEILRTKWTQDSTER	-0.99 ± 0.78
NCCEMNVLYLSIRLLFHVTA	1.58 ± 0.097
NCFNLEKGQMCPDWNGSSYT	-0.667 ± 0.39
NCKWCNT	0.996 ± 0.29
NCTHPFDMTPNFFWSYGIVG	-0.656 ± 1.1

Substance	amyloid nucleation score
NCVTHFMFNLDWSLWFEVCF	-1.04 ± 1.1
NCWNLICLKSSFRR	9.054 ± 0.05
NCYGVVYSLCNMEVLSMWHE	7.723 ± 0.036
NDCSGKDVVILQQE	0.192 ± 1
NDKCKLVLIGLDFNELVQPS	-0.708 ± 1.1
NDLYDSINEA	-0.885 ± 0.38
NDSCELLCESITYTAWFSGQ	3.22 ± 0.12
NDTRSLLML	0.259 ± 0.24
NDWSHRSIFMMVCFWGVHSH	inactive
NEDLIEKSLFCLAYSLFPTS	-0.266 ± 0.62
NEHGGLVNYGVCISGATYLA	4.21 ± 0.097
NELKY	0.02 ± 0.56
NERQEIIPDSSPETHVSNIT	1.12 ± 0.12
NERYP	-0.865 ± 0.33
NESNYRVVRGKFKSEFRAEL	3.61 ± 0.13
NEYYAFFRLSADSASS	0.571 ± 0.51
NFAGLLY	inactive
NFCPLPLVRCIECLRTMDGV	inactive
NFEFFYRRNHT	inactive
NFFVFYIR	7.06 ± 0.072
NFLCVSDKGCDCVESKLG	8.145 ± 0.033
NFLMV	0.75 ± 0.47
NFNCAPFLVLYQQVGQAFSL	6.578 ± 0.06
NFPAWCV	0.495 ± 0.19
NFVIQ	0.011 ± 0.56

Substance	amyloid nucleation score
NFVKRV	-0.509 ± 0.48
NGGPHRPDSLVWYLEHKMRQ	inactive
NGSDRWQASHRTNWGMVGFG	0.597 ± 0.44
NGSRI	0.018 ± 0.31
NGTCLYAYIMIRLISNEFSR	-0.417 ± 0.42
NGVKGLKIMDSRSGVT	6.043 ± 0.046
NHHTEDMVK	0.367 ± 0.32
NHLGLTDCTFQGLDSG	-1.09 ± 1.1
NHMKFAGLGGCYSYCTFLVD	6.587 ± 0.045
NHRAIYF	0.205 ± 0.77
NHTLVLLIRNSNVHVSTAQS	10.78 ± 0.07
NHVARMFLKQRFFSNMS	inactive
NHVNNLIHDFRPALEHLRDT	-0.134 ± 0.45
NIAWTVDRYRKGSARGV	1.17 ± 0.23
NICITHPH	0.299 ± 0.64
NIGRYIIQVGSNGEANWHRV	inactive
NILVLLVTGVTLGR	4.11 ± 0.059
NINNFLSISIFNGYASHVNC	inactive
NINTSYHNSPCPQYTLASMW	-0.231 ± 1
NINYGSSA	-0.746 ± 0.78
NIPRRGIVGWTAL	inactive
NIRMVNLLAYVCPEVIREAC	inactive
NIRSHKGIVLVG	inactive
NIVYESDVVFSCISKYWL	5.426 ± 0.04
NIYGDNVGCYSTECYNTKLI	-0.305 ± 0.74

Substance	amyloid nucleation score
NIYIWVSTMFLLKSEQSSSN	6.038 ± 0.058
NKARWAPVRMEALLVAQRVG	1.28 ± 0.38
NKEKN	2.58 ± 0.13
NKGVCDEVSVSSISVAIF	-0.093 ± 0.63
NKMGVKVYTRIAQHSGHLFA	5.21 ± 0.094
NKNVSTGWYCVIESI	1.26 ± 0.6
NLFQRCREGDMVRNSSVLDG	-0.017 ± 1
NLKLPNRSSWVLPVQYRPFD	3.28 ± 0.053
NLKMDLLRFLHMSLRYISTR	-0.36 ± 0.64
NLMVVRRSDHSRPGNCHWQA	0.381 ± 0.3
NLNFPMRSSILDCAGDNVRR	0.49 ± 0.8
NLRNKIVGLTKGLVCRANVV	2.34 ± 0.091
NLRYVFRFII	2.9 ± 0.073
NLSYSVVMTGISGAMTTCCF	3.64 ± 0.11
NLTFACVVYANWVILTHGAR	6.336 ± 0.061
NLVAMPDQVAGSTCRVCNNN	0.486 ± 0.51
NLVCNSLFRDDKVSTELTEM	inactive
NMCWFKPG	-0.329 ± 0.17
NMDYDIKEQFLSRVPSPRES	-0.95 ± 0.78
NMFIRKEYWSTLALEIFWWS	-0.441 ± 0.4
NMFSLWVYKLAMFWIY	-0.701 ± 1.1
NMGIFALGAEQD	-0.039 ± 1.1
NMHNTCMYKRKLVMDSSVWL	inactive
NMLWASMYH	-0.546 ± 0.42
NMTKRWMVCYHFFFKNYDLT	0.207 ± 0.8

Substance	amyloid nucleation score
NNFWSNGG	-0.285 ± 0.48
NNLPTQIYYVLNSPSEVRLN	0.579 ± 0.31
NNMKVDAVVYIATKPGHWDQ	7.589 ± 0.034
NNNCGRLGVYI	-0.962 ± 1
NNPWFCGGSLWLYGSQYSPS	3.23 ± 0.078
NNRVVFTGRFL	-1.45 ± 0.47
NNSYVFFFI	7.013 ± 0.064
NNVFELCERSKLPIKKFHDV	-0.615 ± 1
NNVGWVLHDGRFFSVSHYIA	0.294 ± 1.1
NNVRMYLSFRAIVY	-1.19 ± 0.76
NNWVAAHSLS	inactive
NPFLFAYANYLLLMCIGRVY	-0.044 ± 0.61
NPGVDQTHFLGFLI	-1.85 ± 1.1
NPLRWEWAGVWLRYTR	0.816 ± 0.58
NPLYEARKRNRLYTFGATRF	3.65 ± 0.084
NPWIAIKWHNTVFLRHIWQM	-0.494 ± 0.22
NPYAHTGHCVIRGFFVA	0.275 ± 0.53
NQFLMVWSDIDVRKDVRFLH	-0.977 ± 0.48
NQYMFFGSHRD	0.424 ± 0.49
NRAFLMSYAPRRHFGAMSKA	3.51 ± 0.073
NRICYRLGCLRADNDNDLSG	-0.234 ± 0.26
NRLMVPSTNKFTCLPE	0.056 ± 0.36
NRNLSYHT	0.633 ± 0.8
NRRFSSGSVSSLKFLRSVWA	-0.428 ± 0.61
NRSFNMHPCGILKKNLVVGV	0.613 ± 0.74

Substance	amyloid nucleation score
NRSGEYRPLMMCVLGPLSTD	0.687 ± 0.24
NRSLD	-1.26 ± 0.54
NRSMSISGMTGYEQLKRHGT	0.023 ± 0.27
NRTFSHWTCLYLFLSTLKRE	-1.06 ± 0.76
NRYTNGPNF	-0.106 ± 0.29
NSFVYGCKCYALTFLRTFLV	-1.48 ± 0.62
NSINRMVVQLVG	3.9 ± 0.087
NSIYTESHGCTSSCLYGSGY	-0.839 ± 0.78
NSLLNFVFSVYVKACIIPYT	inactive
NSPPVLLHMWRFRRRDTRRY	-0.551 ± 0.61
NSRLLLTHRRISPSPWYVGV	1.09 ± 0.16
NSRRQERWCFIMTLVDFDVV	-0.431 ± 0.4
NSTLGGVFACYYFALSHAAE	6.41 ± 0.059
NTCRSYNRNVIIRARPRPGL	5.14 ± 0.069
NTFFQYDPRHRGHTAGWCGE	0.07 ± 0.54
NTGFNCCNHFFRADGSLVEC	3.39 ± 0.15
NTGWILPYCKRGNSALEGWL	4.31 ± 0.056
NTLGSELLLFA	1.75 ± 0.2
NTLSRYHFNGVRVYCEMTAL	inactive
NTQVTQVILYLRPWV	9.151 ± 0.038
NTSFFDGTFLY	0.598 ± 0.57
NTSMSPSQYCC	2.86 ± 0.16
NTYVRSRHMAMSYCRMQMCL	0.141 ± 0.27

Reference: the supplement of paper PMC12042874
